The values that follow come from publication PMC4338608.

Assay in all cases: resonant mirror detection
Assay [1] addresses GST-NHE1cd mutant M1 (K513KKQETKR→AAAQETAA) (rat (Rattus norvegicus)).
Assay [2] has as its target GST-NHE1cd mutant M2 (R556FNKKYVKK→…) (rat (Rattus norvegicus)).
Assay [3] addresses GST-NHE1cd mutant M3 (K513KK→AAA) (rat (Rattus norvegicus)).
The target of assay [4] is recombinant human calmodulin with four extra N-terminal amino acids Gly-Ser-His-Met (human).

In the case of “exon 5-encoded human 4.1R^80 polypeptide (GST fusion) (domain or fragment)”, in assay [1], the Kd – broadly, the concentration at which binding is half-saturated – was found to be 4.79 µM and the association rate constant (kon) (as a rule, the rate constant with which the complex forms) amounted to 250 M⁻¹ s⁻¹. In assay [2], this substance gave a dissociation constant (Kd) of 26.1 µM and an on-rate (kon) of 240 M⁻¹ s⁻¹.

“recombinant 4.1R FERM domain (from UniProt P11171 210-488) (domain or fragment)”: in assay [3], the Kd worked out at 0.545 µM; the dissociation rate constant (koff) – broadly, the rate constant with which the complex falls apart – was determined as 0.065 s⁻¹; the kon is 120000 M⁻¹ s⁻¹. For the same substance, the Kd in assay [4] was 0.1 µM.
